Entries after “also recorded” stand apart in the source; their conditions may differ.
T1: 15AA-Nterm FGFR2
T1 peptide: RPSFSLVEDTTLEPE


Key:
[1] = target: FGFR2 on SNU-16 gastric cancer cell line with FGFR2 amplification (UniProt P21802); test: FACS on SNU-16 cells, % cells with FITC+ against log antibody concentration; Kd printed in the legend box [cont.]
15AA-Nterm FGFR2 = target: T1, 15AA-Nterm FGFR2; test: row 'Kd (nM) (patent)', value quoted from the source patent; method: Indirect ELISA-15AA-Nterm FGFR2
[2] = target: FGFR2 on SNU-16 gastric cancer cell line with FGFR2 amplification (UniProt P21802); test: FACS on SNU-16 cells, % cells with FITC+ [cont.]
[3] = target: FGFR2b alpha IIIb antigen (UniProt P21802); test: SPR (Biacore), antibody immobilized, FGFR2b alpha IIIb in flow
FGFR2b alpha IIIb = FGFR2b alpha IIIb (Homo sapiens, UniProt P21802); test: Surface Plasmon Resonance (SPR) binding; conditions: FGFR2b alpha IIIb antigen
Sequence of FGFR2b alpha IIIb (P21802 22-378 isoform P21802-3): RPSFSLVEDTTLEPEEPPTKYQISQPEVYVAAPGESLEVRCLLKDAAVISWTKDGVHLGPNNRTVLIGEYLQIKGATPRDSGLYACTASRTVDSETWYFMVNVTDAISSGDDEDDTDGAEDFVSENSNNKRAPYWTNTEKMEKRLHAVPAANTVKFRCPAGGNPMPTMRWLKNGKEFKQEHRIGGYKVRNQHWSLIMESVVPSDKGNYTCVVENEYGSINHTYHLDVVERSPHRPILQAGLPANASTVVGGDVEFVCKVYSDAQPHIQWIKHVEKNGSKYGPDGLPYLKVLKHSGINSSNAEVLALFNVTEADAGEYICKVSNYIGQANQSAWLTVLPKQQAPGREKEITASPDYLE
Source text: FIGS. 17A-17C provide a schematic and tabular data related to assessments made to compare the avidity of biparatopic antibodies to that of their parental (bivalent monospecific) antibodies.
Surface Plasmon Resonance (SPR) as known in the art was used to determine the binding affinities of biparatopic antibodies. The SPR-based binding method involves immobilization of a ligand (antibody) on the surface of a sensor chip. The binding partner of interest or an analyte (FGFR2 ECD) flow through the flow channel. Different concentrations of an analyte flow over the ligand, and the interactions of ligand-analyte can be characterized. The SPR signal originates from changes in the refractive index of the […] at the surface of the sensor chip. The increase in mass associated with a binding event causes a proportional increase in the refractive index, which is observed as a change in response-resonance signal. In brief, for the experiments using the antibodies described herein, the SPR assay was carried out by immobilizing antibodies (used as […]) at a concentration ranging from 1-1000 nM and flow-through FGFR2b alpha IIIb antigen (used as […]). The antibody kinetic data for the interaction with FGFR2b alpha IIb antigen were fitted to the 2-state and 1-1 binding models using Biocore software. The mean and standard deviation KD values are derived from at least three independent runs.
Using SPR, the kinetics of 6 monospecific and 13 biparatopic antibodies for binding to a single antigen, FGFR2b alpha IIb, was measured so as to compare avidity of the biparatopic antibodies to their parental antibodies. Without wishing to be bound by theory, it was expected that the biparatopic antibodies would bind to the FGFR2 antigen more tightly than their parental antibodies and that the tighter binding biparatopic antibodies among the antibodies that were assessed would be more efficient in blocking FGFR2 dimerization (FIG. 17A), thereby leading to inhibition or blocking of constitutive FGFR2 signaling and/or oncogenic transformation. […]

[4] = target: FGFR2b alpha IIIb antigen (UniProt P21802); test: SPR (Biacore), antibody on chip, FGFR2b alpha IIIb antigen
[5] = target: FGFR2 on SNU-16 gastric cancer cell line with FGFR2 amplification (UniProt P21802); test: FACS on SNU-16 cells, % No. of cells with FITC+ [cont.]
[6] = test system: FGFR2-PHDGH fusion expressing BaF3 cells; test: growth of BaF3 cells expressing FGFR2-PHGDH fusion, absence of FGF ligands (FIG. 9); format: cell-based; conditions: BaF3 FGFR2-PHGDH fusion
Protocol: Antibodies A-F were tested to determine whether they could inhibit the ligand-induced growth of BaF3 cells expressing FGFR2IIIb. Antibodies C, D, and E, which bind FGFR2 Ig-2 and Ig-3, were effective in blocking ligand-induced growth of BaF3 cells expressing wild-type FGFR2IIIb (FIG. 8). The effects of antibodies A-F were then tested on BaF3 cells expressing FGFR2-PHDGH fusions. […] Antibody F inhibited the FGFR2-PHDGH activating fusion in BaF3 cells (FIG. 9).

[7] = target: FGFR2 on SNU-16 gastric cancer cell line with FGFR2 amplification (UniProt P21802); test: row 'Kd (nM) (FACS)'; FACS on SNU-16 cells
[8] = target: FGFR2b alpha IIIb antigen (UniProt P21802); test: SPR (Biacore), KD matrix by the two arms; unit M from FIG. 17B and paragraph 180
[9] = test system: NIH3T3 cells overexpressing FGFR2-BICC1 fusion; test: NIH3T3 FGFR2-BICC1 cell confluency, Incucyte (FIGS. 19A-19E); format: cell-based; conditions: 60 hours, 0.013-1 μM
Protocol: FIGS. 19A-19E present graphs showing the ability of biparatopic antibodies to impact FGFR2-fusion driven cell growth in NIH3T3 cells molecularly engineered to overexpress FGFR2-BICC1 fusion. […] The nomenclature of the biparatopic antibodies is based on the designations and descriptions of the parental antibodies presented in FIG. 7B.
The impact of biparatopic antibodies on FGFR2-fusion driven cell growth was assessed in a cell-based assay using biparatopic antibodies that bind to the ECD of FGFR2 and generated as described supra (Example 4). As described herein, the biparatopic antibodies were added to cultures of cells (e.g., NIH3T3 cells or BaF3 cells) molecularly engineered to overexpress FGFR2 fusion.
For assays using NIH3T3 cells, (FIGS. 19A-19E), NIH3T3 cells overexpressing a FGFR2-BICC1 fusion construct were plated in 384 black well plates at a concentration of 1000 cells/well overnight. 6 parental antibodies and 13 biparatopic antibodies were added to each well in duplicates at various concentrations ranging from 1 μM to 0.013 μM (1 μM, 0.833 μM, 0.600 μM, 0.450 μM, 0.316 μM, 0.233 μM, 0.166 μM, 0.125 μM, 0.091 μM, 0.066 μM, 0.048 μM, 0.035 μM, 0.025 μM, 0.018 μM, and 0.013 μM). The cell confluency was measured using Incucyte at 60 hours post treatment, and the IC50 curves were generated using non-linear fit in PRISM 9 software.

Molecule	Kd [1]	Kd (15AA-Nterm FGFR2)	EC50 (read off the curve) [2]	Binding Stoichiometry [3]	Kd (FGFR2b alpha IIIb)	Kd [4]	EC50 (read off the curve) [5]	agonist activity in the absence of FGF ligands [6]	Kd [7]	Kd [3]	Kd [8]	inhibition of growth of NIH3T3 cells overexpressing FGFR2-BICC1 compared to parental antibodies [9]
M048-D01 (antibody, V domains shown, Parental bivalent monospecific antibody; also called Antibody A; Bayer) VH: EVQLLESGGGLVQPGGSLRLSCAASGFTFSSYAMSWVRQAPGKGLEWVSAISGSGTSTYYADSVKGRFTISRDNSKNTLYLQMNSLRAEDTAVYYCARVRYNWNHGDWFDPWGQGTLVTVSS VL: QSVLTQPPSASGTPGQRVTISCSGSSSNIGNNYVSWYQQLPGTAPKLLIYENYNRPAGVPDRFSGSKSGTSASLAISGLRSEDEADYYCSSWDDSLNYWVFGGGTKLTVLG	30.7 nM	105 nM	0.1 µg/mL	1.7	16 nM	16 nM	4 µg/mL	agonist activity	30.7 nM	–	–	–
10164 (antibody, V domains shown, the duobody scheme implies IgG1 with K409R or F405L; also called Antibody C; N10164) VH: QVQLVESGGGLVKPGGSLRLSCAASGFTFSSYALSWVRQAPGKGLEWVGRIRSKIDGGTTDYAAPVKGRFTISRDDSKNTLYLQMNSLKTEDTAVYYCARDRSPSDSSAFAIWGQGTLVTVSS VL: DIELTQPPSVSVSPGQTASITCSGDNLGSQYVDWYQQKPGQAPVLVIYDDNDRPSGIPERFSGSNSGNTATLTISGTQAEDEADYYCQSWDSLSVVFGGGTKLTVLG	0.13 nM	–	0.02 µg/mL	1.9	–	1.7 nM	0.02 µg/mL	–	0.13 nM	–	–	–
FGFR_GA/GE_FL (bispecific antibody, part only; not given: Constant regions with duobody mutation, part only) heavy chain, GA arm, part: QVQLVQSGAEVKKPGSSVKVSCKASGYIFTTYNVHWVRQAPGQGLEWIGSIYPDNGDTSYNQNFKGRATITADKSTSTAYMELSSLRSEDTAVYYCARGDFAYWGQGTLVTVSS light chain, GA arm: DIQMTQSPSSLSASVGDRVTITCKASQGVSNDYAWYQQKPGKAPKLLIYSASYRYTGVPSRFSGSGSGTDFTFTISSLQPEDIATYYCQQHSTTPYTFGQGTKLEIK heavy chain, GE arm, part: EVQLVESGGGLVQPGGSLRLSCAASGFPFTSTGISWVRQAPGKGLEWVGRTHLGDGSTNYADSVKGRFTISADTSKNTAYLQMNSLRAEDTAVYYCARTYGIYDTYDMYTEYVMDYWGQGTLVTVSS light chain, GE arm: DIQMTQSPSSLSASVGDRVTITCRASQDVDTSLAWYKQKPGKAPKLLIYSASFLYSGVPSRFSGSGSGTDFTLTISSLQPEDFATYYCQQSTGHPQTFGQGTKVEIK	–	–	–	1.2	–	–	–	–	–	0.87 nM	0.87 nM	–
Biparatopic antibody GE/N12 (bispecific antibody, V domains shown) VH 1: EVQLVESGGGLVQPGGSLRLSCAASGFPFTSTGISWVRQAPGKGLEWVGRTHLGDGSTNYADSVKGRFTISADTSKNTAYLQMNSLRAEDTAVYYCARTYGIYDTYDMYTEYVMDYWGQGTLVTVSS VL 1: DIQMTQSPSSLSASVGDRVTITCRASQDVDTSLAWYKQKPGKAPKLLIYSASFLYSGVPSRFSGSGSGTDFTLTISSLQPEDFATYYCQQSTGHPQTFGQGTKVEIK VH 2: QVQLVQSGAEVKKPGESLKISCKGSGYSFTNYYIHWVRQMPGKGLEWMGAIYPDNSDTTYSPSFQGQVTISADKSISTAYLQWSSLKASDTAMYYCARGADIWGQGTLVTVSS VL 2: DIQMTQSPSSLSASVGDRVTITCRASQDIDPYLSNWYQQKPGKAPKLLIYDASNLQSGVPSRFSGSGSGTDFTLTISSLQPEDFATYYCQQTTSHPYTFGQGTKVEIK	–	–	–	1.3	–	–	–	–	–	0.42 nM	0.42 nM	more efficient and potent; also recorded: more effective and potent
Biparatopic antibody B/GE (bispecific antibody, V domains shown) VH 1: EVQLLESGGGLVQPGGSLRLSCAASGFTFSSYAMSWVRQAPGKGLEWVSAISGSGTSTYYADSVKGRFTISRDNSKNTLYLQMNSLRAEDTAVYYCARVRYNWNHGDWFDPWGQGTLVTVSS VL 1: QSVLTQPPSASGTPGQRVTISCSGSSSNIGNNYVSWYQQLPGTAPKLLIYENYNRPAGVPDRFSGSKSGTSASLAISGLRSEDEADYYCSSWDDSLNYWVFGGGTKLTVLG VH 2: EVQLVESGGGLVQPGGSLRLSCAASGFPFTSTGISWVRQAPGKGLEWVGRTHLGDGSTNYADSVKGRFTISADTSKNTAYLQMNSLRAEDTAVYYCARTYGIYDTYDMYTEYVMDYWGQGTLVTVSS VL 2: DIQMTQSPSSLSASVGDRVTITCRASQDVDTSLAWYKQKPGKAPKLLIYSASFLYSGVPSRFSGSGSGTDFTLTISSLQPEDFATYYCQQSTGHPQTFGQGTKVEIK	–	–	–	1.3	–	–	–	–	–	0.37 nM	0.37 nM	more efficient and potent; also recorded: more effective and potent
GE/N10: biparatopic antibody combining parental antibodies GE (Antibody D) and N10 (Antibody C) (antibody, V domains shown) VH 1: EVQLVESGGGLVQPGGSLRLSCAASGFPFTSTGISWVRQAPGKGLEWVGRTHLGDGSTNYADSVKGRFTISADTSKNTAYLQMNSLRAEDTAVYYCARTYGIYDTYDMYTEYVMDYWGQGTLVTVSS VL 1: DIQMTQSPSSLSASVGDRVTITCRASQDVDTSLAWYKQKPGKAPKLLIYSASFLYSGVPSRFSGSGSGTDFTLTISSLQPEDFATYYCQQSTGHPQTFGQGTKVEIK VH 2: QVQLVESGGGLVKPGGSLRLSCAASGFTFSSYALSWVRQAPGKGLEWVGRIRSKIDGGTTDYAAPVKGRFTISRDDSKNTLYLQMNSLKTEDTAVYYCARDRSPSDSSAFAIWGQGTLVTVSS VL 2: DIELTQPPSVSVSPGQTASITCSGDNLGSQYVDWYQQKPGQAPVLVIYDDNDRPSGIPERFSGSNSGNTATLTISGTQAEDEADYYCQSWDSLSVVFGGGTKLTVLG	–	–	–	–	–	–	–	–	–	–	–	more efficient and potent; also recorded: more effective and potent
